Results reported in patent EP2373335B1 (Eli Lilly and Company, dated 2016).
Changes are numbered by the printed parent chain.

T1: human ferroportin 1 (human, UniProt Q9NP59 1-571)
T1 sequence: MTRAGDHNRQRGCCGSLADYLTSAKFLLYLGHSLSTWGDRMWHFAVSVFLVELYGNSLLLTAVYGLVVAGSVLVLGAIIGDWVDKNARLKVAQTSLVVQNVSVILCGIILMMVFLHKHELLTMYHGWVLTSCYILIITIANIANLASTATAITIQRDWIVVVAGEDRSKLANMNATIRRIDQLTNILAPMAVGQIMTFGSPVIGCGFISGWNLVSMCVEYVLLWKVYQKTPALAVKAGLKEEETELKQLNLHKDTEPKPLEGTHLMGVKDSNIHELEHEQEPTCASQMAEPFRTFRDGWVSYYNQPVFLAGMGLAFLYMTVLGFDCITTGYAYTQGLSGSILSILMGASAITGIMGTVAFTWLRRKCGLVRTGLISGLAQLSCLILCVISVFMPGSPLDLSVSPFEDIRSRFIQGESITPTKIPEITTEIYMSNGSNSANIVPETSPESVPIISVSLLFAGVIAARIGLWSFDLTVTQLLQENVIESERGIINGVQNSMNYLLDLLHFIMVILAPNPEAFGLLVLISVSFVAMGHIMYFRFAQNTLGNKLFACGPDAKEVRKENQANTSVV

T2: FPN1-GFP (human, UniProt Q9NP59 1-571, A GFP reporter is fused to the C terminus of FPN1. Its letters are not given, so it is left out.)
T2 sequence: T1 sequence

B1: Mab 4A10-3 (antibody, human IgG4 S228P, kappa, F234A L235A, V domains shown)
VH: QVQLVQSGAEVKKPGSSVKVSCKASGYAFTSFLIEWVRQAPGQGLEWMGTSNPRTGGRKYKEKFRGRVTITADKSTSTAYMELSSLRSEDTAVYYCAREFFDYWGQGTTVTVSS
VL: DIQMTQSPSSLSASVGDRVTITCRASKSISKYTAWYQQKPGKAPKLLIYAGSKLHWGVPSRFSGSGSGTDFTLTISSLQPEDFATYYCQQHNEYPYTFGGGTKVEIKR
B2: Mab 3D8 (antibody, human IgG4 S228P, kappa, F234A L235A, V domains shown)
VH: B1 VH with R58T
VL: B1 VL with W56S
B3: Mab L2.2-4 (antibody, human IgG4 S228P, kappa, F234A L235A, V domains shown)
VH: B1 VH
VL: B1 VL with H55R, W56S
B4: Mab Combi11 (antibody, human IgG4 S228P, kappa, F234A L235A, V domains shown)
VH: B1 VH with G57R, R58T, E62S
VL: B1 VL with L54R
B5: Mab 34A9 (antibody, mouse IgG1, kappa, V domains shown)
VH: QVQLKQSGAELVRPGTSVKVSCKASGYAFTNFLIEWLKQRPGQGLEWIGTINPETGGTKYNEKFRGKATLTADKSSSTAYMQLNSLTSDDSAVYFCVREFFDYWGQGTSLTVSS
VL: ETTVTQSPSYLAASPGETITINCRASKSISKYLAWFQEKPGKTNKLLIYAGSTLHSGIPSRFSGSGSGTDFTLTISSLEPEDFAMYYCQQHNEYPYTFGGGTKLELKR
B6: Fab 1G9 (Fab, V domains shown)
VH: B5 VH with N31S, E54R
VL: ETTVTQSPSYLAASPGETITINCRASKSISKYLAWFQEKPGKTNKLLIYAGSKLHSGIPSRFSGSGSGTDFTLTISSLEPEDFAMYYCFQHNEYPYTFGGGTKLELK
notes: also called mouse 1G9; mouse Fab 1G9
B7: Mab 1G9 (antibody, mouse IgG1, kappa, V domains shown)
VH: B5 VH with N31S, E54R
VL: B5 VL with T53K, Q89F

How the values were obtained:
human ferroportin 1 [1] = biological target: T1, human ferroportin 1; test: cell-based or functional assay
FPN1-GFP [2] = biological target: T2, FPN1-GFP; test: cell-based or functional assay
human ferroportin 1 [3] = biological target: T1, human ferroportin 1; test: inhibition of 30 nM biotinylated hepcidin binding to FPN/293 cells, ELISA read-out; antibody at 125 nM; mean
human ferroportin 1 [4] = biological target: T1, human ferroportin 1; test: inhibition of 30 nM biotinylated hepcidin binding to FPN/293 cells, ELISA read-out; antibody at 500 nM; mean
human ferroportin 1 [5] = biological target: T1, human ferroportin 1; test: inhibition of 30 nM biotinylated hepcidin binding to FPN/293 cells, ELISA read-out; antibody at 7.8 nM; mean
human ferroportin 1 [6] = biological target: T1, human ferroportin 1; test: inhibition of 30 nM biotinylated hepcidin binding to FPN/293 cells, ELISA read-out; antibody at 2000 nM; mean
human ferroportin 1 [7] = biological target: T1, human ferroportin 1; test: inhibition of 30 nM biotinylated hepcidin binding to FPN/293 cells, ELISA read-out; antibody at 31.25 nM; mean
FPN1-GFP [8] = biological target: T2, FPN1-GFP; test: cell-based or functional assay; remark: listed apart in the source
FPN1-GFP [9] = biological target: T2, FPN1-GFP; test: SPR (Biacore T100) at 37 °C; FPN1-GFP captured on rabbit anti-GFP antibody; KD of Fab 1G9 against KD of Fab 34A9

Absolute IC50 (FPN1-GFP [2]) [nM]	Relative IC50 (FPN1-GFP [2]) [nM]	Top % Inhibition (hepcidin-25-induced internalization and degradation of FPN1-GFP) (FPN1-GFP [2]) [%]	EC50 (nM); inhibition of hepcidin induced ferritin increase in Caco-2 cells (human ferroportin 1 [1]) [nM]	% Inhibition (human ferroportin 1 [3]) [%]	% Inhibition (human ferroportin 1 [4]) [%]	% Inhibition (human ferroportin 1 [5]) [%]	% Inhibition (human ferroportin 1 [6]) [%]	% Inhibition (human ferroportin 1 [7]) [%]	Percent (%) Inhibition of Mature Human Hepcidin-induced Internalization and Degradation In Vitro; Mab at 7.4 nM (FPN1-GFP [8]) [%]	Percent (%) Inhibition of Mature Human Hepcidin-induced Internalization and Degradation In Vitro; Mab at 22 nM (FPN1-GFP [8]) [%]	Percent (%) Inhibition of Mature Human Hepcidin-induced Internalization and Degradation In Vitro; Mab at 67 nM (FPN1-GFP [8]) [%]	Percent (%) Inhibition of Mature Human Hepcidin-induced Internalization and Degradation In Vitro; Mab at 200 nM (FPN1-GFP [8]) [%]	Percent (%) Inhibition of Mature Human Hepcidin-induced Internalization and Degradation In Vitro; Mab at 600 nM (FPN1-GFP [8]) [%]	also measured	Molecule
														% Inhibition; ferritin in Caco-2 cells with 100 nM hepcidin; 6.25 µg/mL mIgG1 (human ferroportin 1 [1]): 0%; % Inhibition; ferritin in Caco-2 cells with 100 nM hepcidin; 12.5 µg/mL mIgG1 (human ferroportin 1 [1]): 0%; % Inhibition; ferritin in Caco-2 cells with 100 nM hepcidin; 25 µg/mL mIgG1 (human ferroportin 1 [1]): 7.2%; % Inhibition; ferritin in Caco-2 cells with 100 nM hepcidin; 50 µg/mL mIgG1 (human ferroportin 1 [1]): 0%; % Inhibition; ferritin in Caco-2 cells with 100 nM hepcidin; 100 µg/mL mIgG1 (human ferroportin 1 [1]): 3.5%; % Inhibition; ferritin in Caco-2 cells with 100 nM hepcidin; 200 µg/mL mIgG1 (human ferroportin 1 [1]): 11.6%; Ferritin (ng)/ protein (µg); Caco-2 cells with 100 nM hepcidin; 6.25 µg/mL mIgG1 (human ferroportin 1 [1]): 10.4 ng/µg; Ferritin (ng)/ protein (µg); Caco-2 cells with 100 nM hepcidin; 12.5 µg/mL mIgG1 (human ferroportin 1 [1]): 10 ng/µg; Ferritin (ng)/ protein (µg); Caco-2 cells with 100 nM hepcidin; 25 µg/mL mIgG1 (human ferroportin 1 [1]): 9.6 ng/µg; Ferritin (ng)/ protein (µg); Caco-2 cells with 100 nM hepcidin; 50 µg/mL mIgG1 (human ferroportin 1 [1]): 10.1 ng/µg; Ferritin (ng)/ protein (µg); Caco-2 cells with 100 nM hepcidin; 100 µg/mL mIgG1 (human ferroportin 1 [1]): 9.78 ng/µg; Ferritin (ng)/ protein (µg); Caco-2 cells with 100 nM hepcidin; 200 µg/mL mIgG1 (human ferroportin 1 [1]): 9.4 ng/µg	Mouse IgG1, a negative control (antibody)
5.7	4.7	85.9	37	59.3	84.9	5.4	95.3	13.4							B1
13.7	10.2	86.8	360						28.1	50.2	55.7	63.8	66.4		B2
6.2	4.8	81.6	193	76.5	99.8	-0.1	85.1	27.5							B3
3.8	3.7	92.6	28	88.4	81.6	18.7	79.9	32.1							B4
	58.9	55.2							4.8	14.1	23.6	30.8	39		B5
														fold improvement in binding affinity against Fab 34A9 (FPN1-GFP [9]): ~5 fold	B6
18.8	9.2	69							24.3	49.9	61.8	62.4	67.9		B7
